The record followed here is paper PMC10451225.

Values joined by “and” are separate entries in the source; they are usually repeats but may differ in a detail not shown here. Equal values may be shown once.

Data set [1] deals with Hyphomicrobium denitrificans SoxR, Strep-tagged wild type (Hyphomicrobium denitrificans). As to the kind of experiment: SEC; Superdex 75 Increase 10/300 GL, calibrated with mass standards; 50 mM Tris-HCl, pH 8.0, 150 mM NaCl; 0.8 mL/min; self-association of SoxR. (In general: SEC sorts molecules by how far they enter the pores of the column.)
Data set [2] addresses SoxR Cys116Ser, Strep-tagged (Hyphomicrobium denitrificans). The description is as above.
For data set [3], the target named is SoxR Cys50Ser, Strep-tagged (Hyphomicrobium denitrificans). Described as above.
Data set [4] has as its target T1, SoxR (Hyphomicrobium denitrificans) (UniProt D8JT35).
T1 sequence: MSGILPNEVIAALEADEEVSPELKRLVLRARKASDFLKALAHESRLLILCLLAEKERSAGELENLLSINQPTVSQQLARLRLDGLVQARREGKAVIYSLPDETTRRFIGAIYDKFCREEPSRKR
As to the kind of experiment: EMSA. As to conditions: EMSA: 10 mM Tris-HCl pH 8.0, 50 mM KCl, 1 mM DTT, about 7% glycerol, 17 nM DNA, 15 ul; 20 min at room temperature, then 30 min at 30 C with DNA; 6% native gel …. A general note: Mobility shift assays separate free from complexed probe on a gel.

Data set [5] deals with SoxR Cys50Ser Cys116Ser, Strep-tagged (Hyphomicrobium denitrificans). As to the kind of experiment: SEC; Superdex 75 Increase 10/300 GL, calibrated with mass standards; 50 mM Tris-HCl, pH 8.0, 150 mM NaCl; 0.8 mL/min; self-association of SoxR.

For the substance “Hyphomicrobium denitrificans SoxR, Strep-tagged wild type (natural protein)”, in data set [1], the stoichiometry N (usually the number of molecules, sites or subunits per partner or assembly) was 2 and 4.

Take “SoxR Cys116Ser, Strep-tagged (natural protein)”: the stoichiometry N in data set [2] is 2 and 4.

Take “SoxR Cys50Ser, Strep-tagged (natural protein)”: the stoichiometry N in data set [3] is 2 and 4.

As for “GGGTCACCAAATTCTGCAGGTCTCAATGCGAATGCGAGGCTGCTCCAGCTAGACGAAAAACAAGGAACGTTGCAATAGATAATTCACATATGATAATTTTCATATGTGTTATAGGATGAACGTTATCGCAGCTTCCGGGAGAGATGGCGTGAT (double strand) [soxA-soxY intergenic fragment, 151 bp]”, in data set [4], the binding result is listed as “binds”.

For the substance “SoxR Cys50Ser Cys116Ser, Strep-tagged (natural protein)”, in data set [5], the stoichiometry N was 2 and 4.
